Assay [1] has as its system U-87 glioblastoma cell line. Kind of assay: MTT Cell Proliferation assay, U-87 glioblastoma cell line. Particulars: U-87, 10 μg dose, after 8 days of culture; FIG. 14. Type of assay: cell-based. Here is the method: The cell culture was carried out under aseptic conditions on Nunclon™ treated tissue culture plastics. The U-87 glioblastoma cells (ATCC noHTB-14) used for this project were cultured in standard EMEM (Earle's Minimum Essential Medium) media (Gibco) with 10% Fetal Calf Serum (Gibco) and 5% Penicillin/Streptomycin antibiotic (Sigma). The frozen cells were thawed at 37° C. for 2 minutes. The cells were then immediately transferred to 75 cm2 flask with 10 ml of media. The culture was incubated at 37° C. with 5% CO2 to attain confluency. The media was changed every three days and the cells were then subcultured after reaching 80-90% confluency. […]
The U87 glioblastoma cells were grown under standard conditions (as mentioned above). The total number of cells were counted using a haemocytometer (Hawksley) and the concentration was calculated using the following equation: […]
Two groups of proliferation studies were carried out for each antibody. […] Mouse anti-GST antibody concentration responses were also calculated the similar way since it was the antibody control for the experiment
In order to check for consistency of the cells seeded, a 12-24 hours study was performed. […] The plate was read for absorbance at 595 nm (Spectramax M5e), using the software Softmax™ Pro 5.2.X 100035.
The proliferation/survival of SW-13 and U87 (Glioblastoma cell line) cells was determined using the MTT assay.

In assay [2] the test system is MDA-MB-436-GFP breast cancer cell line. Kind of assay: MTT Cell Proliferation assay, MDA-MB-436-GFP breast cancer cell line. Type of assay: cell-based. To be noted: after 8 days of culture, FIG. 17. Here is the method:
(§1) Two groups of proliferation studies were carried out for each antibody. One group was used to study the effect on proliferation by the antibody in presence of endogenous adrenomedullin, while the other group was used to the study the effects of antibody in presence of exogenously added adrenomedullin. Varying concentrations of antibody were prepared in PBS to result in final well concentrations of 10 μg, 1 μg, 100 ng, 10 ng, 1 ng, 100 pg, 10 pg and 1 pg. Six replicates of each concentration of each antibody was carried out. This dose range was used in both groups. Adrenomedullin was added to the appropriate group to a final well concentration of 200 nM. 5-FluoroUracil (Fluka) was used as a positive control (100 mM) for the reduction in proliferation. PBS controls were also prepared. The plates were then incubated under standard conditions. Replacement and re-dosing of antibody and controls was carried out every 2 days. Mouse anti-GST antibody concentration responses were also calculated the similar way since it was the antibody control for the experiment
(§2) In order to check for consistency of the cells seeded, a 12-24 hours study was performed. Further time points were carried out at 2, 4, 6 and 8 days. […] The plate was read for absorbance at 595 nm (Spectramax M5e), using the software Softmax™ Pro 5.2.X 100035.

Assay [3] deals with PC-3 prostate cancer cell line. Kind of assay: MTT Cell Proliferation assay, PC-3 prostate cancer cell line. Type of assay: cell-based. Particulars: PC-3, 10 μg, after 8 days of culture, FIG. 19. As for the experimental part: as §1, §2
The test system of assay [4] is HCT116 colon cancer cell line. Kind of assay: MTT Cell Proliferation assay, HCT116 colon cancer cell line. Type of assay: cell-based. To be noted: HCT116, 10 μg, after 8 days of culture; FIG. 21. Here is the method: as §1, §2
Assay [5] has as its system U-87 glioblastoma cancer cell line. Kind of assay: Apoptosis assay (caspase-3), U-87 cells. Type of assay: cell-based. Particulars: U-87, 10 μg; FIG. 22. As for the experimental part:
(§3) The apoptosis assay was carried out using the Caspase-3 Assay kit (Sigma).
U-87 cells were prepared under standard conditions. A cell solution of 2×10^7 cells was made up in 2 ml of media were dispensed into polypropylene tubes.
(§4) 2×10^7 cells wens taken for each treatment. The treatment groups were, antibody treated cells (for each antibody), anti-Fas antibody, antibody and adrenomedullin treated cells, blank and adrenomedullin treated cells. The positive control used was anti-Fas monoclonal antibody (MBL). The final concentration of antibodies used was […] and for anti-Fas antibody was 500 ng.
(§5) The treated cell suspension in 2 ml media were incubated for 3 hours at 37° C. in a 5% CO2 atmosphere.
The assay buffer and lysis buffer given in the kit was prepared using the given 17 megohm water as per the standard instructions given in the protocol. After 3 hours of incubation, the cells were centrifuged at 600 g for 5 minutes at 4° C. The supernatant was discarded and the cells were resuspended in 1 ml PBS. The cells were once again centrifuged using the above mentioned conditions and the supernatant was discarded. The cell pellet was resuspended in 200 μl 1× lysis buffer and incubated on ice for 20 minutes. The lysed cells were centrifuged at 20,000 g for 15 minutes at 4° C. […] The absorbance was read at 405 nm (Spectramax M5e), using the software Softmax™ Pro 5.2.36.

Assay [6] concerns MDA-MB-436-GFP breast cancer cell line. Kind of assay: Apoptosis assay (caspase-3), MDA-MB-436-GFP cells. Type of assay: cell-based. Particulars: 10 μg, FIG. 23. Here is the method: as §3, §4, §5
The assay buffer and lysis buffer given in the kit was prepared using the given 17 megohm water as per the standard instructions given in the protocol. After 3 hours of incubation, the cells were centrifuged at 600 g for 5 minutes at 4° C. The supernatant was discarded and the cells were resuspended in 1 ml PBS. The cells were once again centrifuged using the above mentioned conditions and the supernatant was discarded. The cell pellet was resuspended in 200 μl 1× lysis buffer and incubated on ice for 20 minutes. The lysed cells were centrifuged at 20,000 g for 15 minutes at 4° C. The cell lysine were then laid out in a 96 well flat bottomed plate as shown in FIG. 6 and incubated overnight. The absorbance was read at 405 nm (Spectramax M5e), using the software Softmax™ Pro 5.2.36.

The test system of assay [7] is MDA-MB-436-GFP breast cancer cells. Kind of assay: MDA-MB-436-GFP xenograft in CD1 nude mice. Type of assay: in vivo, CD1 nude (nu/nu) mice. To be noted: right flank of CD1 nude mice, 6 weeks. Here is the method: MDA-MB-436-GFP cells were cultured in RPMI media containing penicillin (50 U/ml), streptomycin (50 μg/ml), glutamine (1 mg/ml), and supplemented with 10% fetal bovine serum. Cells were cultured under a humid 5% CO2/95% air atmosphere, and fed with fresh medium every 2 days, being routinely monitored for mycoplasma contamination. Cells growing exponentially were harvested using Trypsin EDAT solution. All culture media components were purchased from Invitrogen Life Technologies
Animal work was performed in the animal facility of the University of Sheffield. Male 4-to-5-week-old CD1 nude (nu/nu) mice were used. Mice were acclimated and housed in sterile cages in groups of four or less under laminar flow hoods in a temperature-controlled room with a 12-hour light/12-hour dark schedule, and fed autoclaved chow and water ad libitum.
CD1 nude (nu/nu) nude mice were implanted with MDA-MB-436-GFP breast cancer cells. For the cell implantations, MDA-MB-436-GFP cells, grown in culture, were washed with PBS, dispersed in a 0.05% solution of trypsin, and resuspended. […] Tumors were measured with a digital venier calliper (Site), and tumour volumes were determined using the formula width×length×height×0.52 (for ellipsoid form), these measurement were taken twice weekly. […]

B1: JF2: monoclonal anti-RAMP-3 antibody, IgG, IgG1 subtype (antibody, V domains shown)
VH: QVQLVESGGGVVQPGKSLRLSCAASGFTFSSYGMYWVRQAPGKGLEWVAVISYDGSNKYYADSVKGRFTISRDNSKNTLYLQMNSLRAEDTAVYNCAKEMRYGSGRKAIKYYYGMDVWGQGTTVTVSSASTKGPSVFPLA
VL: DIQMTQSPSSLSASLGERVSLTCRASQDIGSNLNWLQQEPDGTIKRLIYATSSLDSGVPKRFSGSRSGSDYSLTISSLESEDFVDYYCLQYASSPPTFGGGTKLEIKRADAAPTVSIFPPSSKLG
On to B1, for which the reduction in proliferation in assay [1] came to 40%; in assay [2] (10 μg (greatest reduction)), 12%; in assay [3] (in the absence of exogenously added adrenomedullin), 22%; in assay [3] (in the presence of adrenomedullin) it was 37%. Further, the “reduction in proliferation compared to controls” value in assay [2] (doses 1 μg and 10 μg) was “significant reduction in proliferation”; in assay [4] it was “no statistically significant reduction in proliferation”. In assay [5], the “increase levels of caspase-3” value was found to be 26%. Moreover, the “levels of caspase-3 (apoptosis), significance” value in assay [6] was “only antibody JB3 showed a significant increased”. Also, the tumour volume entry in assay [7] (versus control groups, FIG. 24) is listed as “rates of growth within the treatment groups are considerably slower”. The tumour weights result in assay [7] (calculated back using the volumes of tumours, FIG. 25) is reported as “still remain below control groups”.

The record behind these values is patent publication US8389237B2, “Antibodies against RAMP3” (Medella Therapeutics Limited, priority 2007, dated 2013).
